Results on one substance are retold here after PMC4113483.

The assay deals with Mu-HSSKLQ-AMC (morpholinocarbonyl-His-Ser-Ser-Lys-Leu-Gln-7-amido-4-methylcoumarin), fluorogenic PSA substrate. The assay is described as follows: Spectrofluorimetric pre-steady-state (burst) and steady-state kinetics of AMC release (excitation 380 nm, emission 460 nm). The conditions noted are these: 37.0 C, 100 mM NaCl, 10 mM CaCl2, 25 mM bis-tris-HCl and 25 mM tris-HCl between pH 6.5 and 9.0 (the buffer used at each pH is not stated).

Under “pH 6.5-9.0”, “Prostate-specific antigen (PSA, kallikrein-related peptidase 3, KLK3)” registered a pKES1, group 1 of PSA (unassigned; tentatively Lys95E of the kallikrein loop) of 8.59 pH units. Moreover, the pKES2, group 2 of PSA (unassigned; tentatively a histidine, possibly His57 or His172) (pH 6.5-9.0) is 5.11 pH units. For the same substance, the pKU1, group 1 of PSA (unassigned; tentatively Lys95E of the kallikrein loop) (pH 6.5-9.0) turned out to be 8.02 pH units. The substance also displayed a pKU2, group 2 of PSA (unassigned; tentatively a histidine, possibly His57 or His172) (pH 6.5-9.0) of 7.61 pH units. Moreover, the Ks (pH 6.5) stood at 490 µM; the Ks (pH 7.0) came to 120 µM; the Ks (pH 7.5) is 62 µM; the Ks (pH 8.0) was 42 µM; the Ks (pH 8.5) came to 55 µM; the Ks (pH 9.0) amounted to 75 µM.
